In patent publication US20070238143A1, “Metal ion mediated fluorescence superquenching assays, kits and reagents” (priority 2003, published 2007):

Assays:
biotin-LRRASLG = test system: T1, biotin-LRRASLG
T1 sequence: LRRASLG

Rhodamine-LRRASLG = test system: T2, Rhodamine-LRRASLG
T2 sequence: LRRASLG

[1] = test system: myelin basic protein (MBP)
Rhodamine-LRRA(pS)LG = test system: T3, Rhodamine-LRRA(pS)LG
T3 sequence: LRRASLG

[2] = target: T4, protein tyrosine phosphatase 1B (PTP-1B) (Homo sapiens, UniProt P18031); assay: Protein tyrosine phosphatase 1B (PTP-1B) metal ion mediated superquenching assay, inhibition; assay type: biochemical; settings: inhibitor curve; FIG. 7
T4 construct: purchased Biomol
T4 sequence (P18031 1-435): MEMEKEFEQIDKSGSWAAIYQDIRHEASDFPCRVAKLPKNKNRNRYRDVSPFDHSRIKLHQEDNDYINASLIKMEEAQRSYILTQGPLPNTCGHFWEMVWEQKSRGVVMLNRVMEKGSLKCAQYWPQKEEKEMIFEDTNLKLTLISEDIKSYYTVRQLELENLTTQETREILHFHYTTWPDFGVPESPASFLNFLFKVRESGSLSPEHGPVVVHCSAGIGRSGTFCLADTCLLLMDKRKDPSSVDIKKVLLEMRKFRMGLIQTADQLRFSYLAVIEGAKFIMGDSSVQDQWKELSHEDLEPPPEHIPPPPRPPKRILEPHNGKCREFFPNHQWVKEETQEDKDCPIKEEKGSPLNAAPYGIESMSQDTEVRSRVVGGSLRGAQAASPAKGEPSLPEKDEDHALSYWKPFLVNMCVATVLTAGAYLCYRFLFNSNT
Experimental: For detection of phosphatase activity:
Recombinant PKA was purchased from Promega. […] Polystyrene amine functionalized beads were obtained from Interfacial Dynamics.
The format was tested for detection of protein tyrosine phosphatase activity 1B (PTP-1B) on a peptide substrate of different length and sequence composition than the one used for PKA.

Recombinant Protein Kinase A (PKA) was tested, and the “two-step PKA endpoint assay (fluorescence quench)” value (biotin-LRRASLG) was “the assays perform using either synthetic substrates with an N-terminal quencher or using biotinylated substrates to which a streptavidin-fluorescein conjugate is added” and the “endpoint measurement of PKA enzyme activity (polymer quench)” value (Rhodamine-LRRASLG) was “an increase in polymer quench correlates with enzyme concentration”.
With kinase PKCα the “blocking kinase assay (fluorescence turn-on)” value [1] was “The resulting fluorescence correlates with the extent of mbp phosphorylation”.
Trypsin was tested, and the Sample (sensor fluorescence after trypsin reaction) (Rhodamine-LRRA(pS)LG) was 42100, the Signal Increase (Rhodamine-LRRA(pS)LG) was 34400 and the Signal/Background (Rhodamine-LRRA(pS)LG) was 5.42.
`CCCCCCCCCCCCCCCC(=O)C1=C(O)C(CO)OC1=O` (stereo not shown) [RK-682] gave an IC50 [2] of 26.4 nM.
